These results are taken from article doi:10.1101/2025.03.14.643254.

As usually defined, the stoichiometry N is the number of molecules, sites or subunits per partner or assembly.

This experiment addresses MRE11 (human) (UniProt P49959). Briefly: cryo-EM structure.

NBS1, sequence (O60934 whole entry): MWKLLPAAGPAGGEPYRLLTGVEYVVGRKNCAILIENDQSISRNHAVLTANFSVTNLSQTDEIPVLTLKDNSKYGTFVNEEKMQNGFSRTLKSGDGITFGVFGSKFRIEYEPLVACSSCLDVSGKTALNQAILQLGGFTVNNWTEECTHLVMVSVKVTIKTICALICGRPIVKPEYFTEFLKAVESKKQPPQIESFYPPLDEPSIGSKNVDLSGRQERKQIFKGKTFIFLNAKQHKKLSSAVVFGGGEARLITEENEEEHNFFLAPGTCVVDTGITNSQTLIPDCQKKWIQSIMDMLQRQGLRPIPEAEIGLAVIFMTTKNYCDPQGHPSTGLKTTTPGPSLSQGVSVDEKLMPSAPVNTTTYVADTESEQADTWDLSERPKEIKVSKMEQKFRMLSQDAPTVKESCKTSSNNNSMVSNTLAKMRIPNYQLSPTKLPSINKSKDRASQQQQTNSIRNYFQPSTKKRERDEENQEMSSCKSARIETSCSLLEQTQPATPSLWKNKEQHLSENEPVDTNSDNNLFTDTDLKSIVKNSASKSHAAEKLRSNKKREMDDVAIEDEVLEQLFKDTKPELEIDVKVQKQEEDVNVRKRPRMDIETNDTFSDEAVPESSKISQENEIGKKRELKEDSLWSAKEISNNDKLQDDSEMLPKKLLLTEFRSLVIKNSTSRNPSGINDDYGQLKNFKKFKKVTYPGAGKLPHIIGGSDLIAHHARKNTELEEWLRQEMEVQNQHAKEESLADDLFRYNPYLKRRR
MRE11, sequence (P49959 whole entry): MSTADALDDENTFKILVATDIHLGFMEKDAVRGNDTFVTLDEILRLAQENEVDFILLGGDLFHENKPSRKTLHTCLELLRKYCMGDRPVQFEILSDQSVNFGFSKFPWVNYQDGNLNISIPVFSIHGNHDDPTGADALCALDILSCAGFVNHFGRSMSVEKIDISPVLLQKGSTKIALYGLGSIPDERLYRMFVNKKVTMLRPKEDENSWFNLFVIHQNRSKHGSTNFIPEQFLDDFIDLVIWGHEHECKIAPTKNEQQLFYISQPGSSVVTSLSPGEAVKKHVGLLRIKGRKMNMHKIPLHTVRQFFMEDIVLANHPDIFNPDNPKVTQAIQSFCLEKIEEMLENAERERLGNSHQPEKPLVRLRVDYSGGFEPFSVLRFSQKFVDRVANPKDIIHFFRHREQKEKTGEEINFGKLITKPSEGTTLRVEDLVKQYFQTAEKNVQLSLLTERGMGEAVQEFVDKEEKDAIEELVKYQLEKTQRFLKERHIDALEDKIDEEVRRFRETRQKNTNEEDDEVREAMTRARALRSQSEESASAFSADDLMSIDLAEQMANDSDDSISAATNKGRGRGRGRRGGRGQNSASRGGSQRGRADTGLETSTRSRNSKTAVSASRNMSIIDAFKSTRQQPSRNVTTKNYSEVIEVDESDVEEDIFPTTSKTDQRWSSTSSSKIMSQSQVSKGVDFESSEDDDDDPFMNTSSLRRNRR
MRE11 (human), sequence (P49959 whole entry): as above

Take “MRE11 (from UniProt P49959) (natural protein)”: the stoichiometry N worked out at 2.
For “NBS1 (from UniProt O60934) (natural protein)”, the stoichiometry N (NBS1 per MRE11 dimer) is 1.
